{"source": "patent US20190195891A1", "about": "“DIAGNOSTIC AND THERAPEUTIC USES OF EXOSOMES” (Yeda Research and Development Co. Ltd., priority 2016, published 2019)", "molecules": {"B1": {"name": "MLKL deletion mutant corresponding to its 180 N-terminal amino acid coiled-coil region: MLKL deletion mutant, 180 N-terminal amino acids (protein, UniProt Q8NB16 1-180, looked up, fragment)", "chain": "MENLKHIITLGQVIHKRCEEMKYCKKQCRRLGHRVLGLIKPLEMLQDQGKRSVPSEKLTTAMNRFKAALEEANGEIEKFSNRSNICRFLTASQDKILFKDVNRKLSDVWKELSLLLQVEQRMPVSPISQGASWAQEDQQDADEDRRAFQMLRRDNEKIEASLRRLEINMKEIKETLRQYL"}, "B2": {"name": "T357E/S358D: MLKL with phospho-mimetic mutations of the residues that are the targets of phosphorylation by RIPK3 (protein, UniProt Q8NB16 1-471, looked up, variant T357E S358D)", "Mixed lineage kinase …": "MENLKHIITLGQVIHKRCEEMKYCKKQCRRLGHRVLGLIKPLEMLQDQGKRSVPSEKLTTAMNRFKAALEEANGEIEKFSNRSNICRFLTASQDKILFKDVNRKLSDVWKELSLLLQVEQRMPVSPISQGASWAQEDQQDADEDRRAFQMLRRDNEKIEASLRRLEINMKEIKETLRQYLPPKCMQEIPQEQIKEIKKEQLSGSPWILLRENEVSTLYKGEYHRAPVAIKVFKKLQAGSIAIVRQTFNKEIKTMKKFESPNILRIFGICIDETVTPPQFSIVMEYCELGTLRELLDREKDLTLGKRMVLVLGAARGLYRLHHSEAPELHGKIRSSNFLVTQGYQVKLAGFELRKTQEDMSLGTTREKTDRVKSTAYLSPQELEDVFYQYDVKSEIYSFGIVLWEIATGDIPFQGCNSEKIRKLVAVKRQQEPLGEDCPSELREIIDECRAHDPSVRPSVDEILKKLSTFSK"}, "B3": {"name": "5A: MLKL in which Lys5, Lys16 Arg17, and Lys50 Arg51 were replaced with alanine (protein, UniProt Q8NB16 1-471, looked up, variant K5A K16A R17A K50A R51A)", "Mixed lineage kinase …": "B2 Mixed lineage kinase … with K5A, K16A, R17A, K50A, R51A, E357T, D358S"}, "B4": {"name": "T357A/S358A: MLKL with the RIPK3 targeted residues replaced with alanine (protein, UniProt Q8NB16 1-471, looked up, variant T357A S358A)", "Mixed lineage kinase …": "B2 Mixed lineage kinase … with E357A, D358A"}, "B5": {"name": "K230M/Q356A: MLKL with mutations within the ATP-binding pocket imposing the conformational change attained after phosphorylation (protein, UniProt Q8NB16 1-471, looked up, variant K230M Q356A)", "Mixed lineage kinase …": "B2 Mixed lineage kinase … with K230M, Q356A, E357T, D358S"}}, "key": {"HepG2 cells [1]": {"tested_on": "HepG2 cells", "assay": "Fate of EGFR after EGF binding in control and MLKL knocked-down HepG2 cells (immunocytochemistry)", "format": "cell-based, human", "details": "2 hours after ligand binding; for cellular levels of the EGFR: HepG2 cells after EGF application; for difference in EGFR between cells expressing MLKL and cells deficient of it: control vs MLKL knocked-down HepG2 cells", "description": "(§1) Bafilomycin A1 from Santa Cruz Biotechnology was applied to the cells at 100 nM. Chloroquine was applied at 25 μM, 4-hydroxytamoxifen was applied at 1 μM, and ionomycin was applied at 1 μM, ultra pure LPS, applied at 1 μg/ml (all from Sigma). Human ECF from Biological industries, mouse EGF from ProSpec and human TNF from Ybdy were biotinylated using an EZ-Link biotinylation kit (Thermo Fisher Scientific) and then applied to the cells at 5 μg/ml or injected intravenously into mice at a dose of 10 μg/mouse. Bovine serum albumin (BSA), tagged with gold particles (BSA-gold, CMC Utrecht), was applied to the cells at an optical density of 2. To trigger necroptosis, TNF (1000 units/ml) was applied together with the bivalentIAP (inhibitor of apoptosis protein) antagonist BV6 and the caspase inhibitor z-VAD-fmk, both from WuXu App Tec, at concentrations of 1 μM and 20 μM respectively. IL-1β ELISA kit was from eBiosicne.\nPrior to ligand treatment the cells were incubated for 12 hours in serum-free medium. Biotinylated EGF and TNF were applied to the cells for 30 minutes on ice in CO2-independent medium (Thermo Fisher Scientific), and this was followed by rinsing and rther incubation without those ligands at 37° C. For western blot analysis, cellular proteins were extracted at the indicated times in RIPA buffer (20 mM Tris-HCl pH 7.5, 150 mM NaCl, 1 mM EDTA, 1 mM EGTA, 1% NP-40, 0.5% sodium deoxycholate, 0.1% sodium dodecyl sulfate (SDS), protease and phosphatase inhibitors). For immunofluorescence microscopy, cells were fixed in 4% paraformaldehyde (PFA) in PBS and then stained with fluorescence-conjugated antibodies.\nImmunostaining was performed as described previously [Yoon S. et al., Cell death and differentiation (2016) 23, 253-260]. Briefly, cells fixed with 4% PFA in PBS were permeabilized by incubation in methanol at −20° C. for 10 minutes, followed by incubation in blocking buffer (20% normal goat serum (NGS), 2% BSA, 0.3 M glycine and 0.1% Tween-20 in PBS, pH 7.2). Following incubation with the indicated antibodies, images were obtained using an Olympus IX 81 confocal microscope (Olympus Imaging), with a UPLSAPO 60×1.35 NA oil objective and FluoView FV1000 software (Olympus Imaging). Images were processed using Imaris software from Bitplane."}, "HepG2 cells [2]": {"tested_on": "HepG2 cells", "assay": "Exosome generation by HepG2 cells, ionomycin treatment", "format": "cell-based, human", "description": "as §1, with “To trigger necroptosis, TNF (1000 units/ml) was applied together with the bivalentIAP (inhibitor of apoptosis protein) antagonist BV6 and the caspase inhibitor z-VAD-fmk, both from WuXu App Tec, at concentrations of 1 μM and 20 μM respectively. IL-1β ELISA kit was from eBiosicne.” left out\n(§2) In all experiments aimed at assessing the generation of exosomes by cultured cells, the FBS supplementing the growth medium was pre-depleted of bovine exosomes by centrifugation at […] for 18 hours. […] The stimuli whose effect on exosome generation was to be assessed were applied for the indicated times towards the end of this 12 hour period. […] Size spectra and amounts of the particles in the exosome preparations were determined by Nanoparticle Tracking Analysis using the NanoSight NS300 device (Malvern Instruments) according to the manufacturer's instructions."}, "MEFs": {"tested_on": "MEFs", "assay": "Exosome generation by MEFs, ionomycin treatment", "format": "cell-based, mouse", "description": "as §1, with “To trigger necroptosis, TNF (1000 units/ml) was applied together with the bivalentIAP (inhibitor of apoptosis protein) antagonist BV6 and the caspase inhibitor z-VAD-fmk, both from WuXu App Tec, at concentrations of 1 μM and 20 μM respectively. IL-1β ELISA kit was from eBiosicne.” left out\nas §2"}, "HT29 cells": {"tested_on": "HT29 cells", "assay": "Exosome generation by HT29 cells after triggering necroptosis (Nanoparticle Tracking Analysis, western blot)", "format": "cell-based, human", "details": "HT-29 cells treated with TBZ", "description": "as §1, with “To trigger necroptosis, TNF (1000 units/ml) was applied together with the bivalentIAP (inhibitor of apoptosis protein) antagonist BV6 and the caspase inhibitor z-VAD-fmk, both from WuXu App Tec, at concentrations of 1 μM and 20 μM respectively. IL-1β ELISA kit was from eBiosicne.” left out\nas §2\nCells and liver samples were extracted in RIPA and in 1% SDS, respectively. […] Band intensity was quantified using the ImageJ software."}, "[3]": {"tested_on": "MLKL knocked-down HT-29 cells", "assay": "Cell death in MLKL knocked-down HT-29 cells inducibly expressing MLKL mutants", "format": "cell-based, human", "details": "induced expression of the mutant", "description": "(§3) The various mutants of MLKL were expressed inducibly in HT-29 cells in which the endogenous MLKL mRNA was constitutively knocked down. Expression was achieved by lentiviral infection with the GEV16/pF5x UAS system as described previously [Dunning C J et al. The EMBO Journal (2007) 26, 3227-3237, doi:10.1038/sj.emboj.7601748].\nCell death was quantified using the Cytotoxicity Detection Kit (Roche Applied Science) to determine the concentration of lactic dehydrogenase (LDH) in the mouse cell media or plasma."}, "[4]": {"tested_on": "MLKL knocked-down HT-29 cells", "assay": "Yield of exosomes in MLKL knocked-down HT-29 cells inducibly expressing MLKL mutants", "format": "cell-based, human", "details": "inducible expression, compared to wild-type MLKL", "description": "as §3\nIn all experiments aimed at assessing the generation of exosomes by cultured cells, the FBS supplementing the growth medium was pre-depleted of bovine exosomes by centrifugation at […] for 18 hours. Except where otherwise indicated, the exosomes were collected after 12 hours of incubation. The stimuli whose effect on exosome generation was to be assessed were applied for the indicated times towards the end of this 12 hour period. Unless otherwise indicated, TBZ was applied for 4 hours. For recovery of exosomes from the mice, mouse blood samples were collected in MiniCollect®TUBEs (Greiner Bio-One) and centrifuged at 3000 rpm for 15 minutes. Mouse plasma and cell-growth media were passed through 0.2 μm filters and centrifuged at […] for 90 minutes, after which the pellet was suspended in phosphate-buffered saline (PBS) and re-sedimented by centrifugation as above. Size spectra and amounts of the particles in the exosome preparations were determined by Nanoparticle Tracking Analysis using the NanoSight NS300 device (Malvern Instruments) according to the manufacturer's instructions."}, "[5]": {"tested_on": "MLKL knocked-down HT-29 cells", "details": "cited from earlier work; for death in HT29 cells on inducible expression: Yoon et al. (2016); for induction of necroptosis/death by TBZ: as previously reported (Sun et al. 2012; Quarato et al. 2016)"}, "[6]": {"tested_on": "MLKL knocked-down HepG2 cells", "assay": "Levels of EGF and EGFR in MLKL knocked-down HepG2 cells inducibly expressing MLKL mutants (western blot)", "format": "cell-based, human", "details": "EGF applied 7 hours after induction"}, "HepG2 cells [7]": {"tested_on": "HepG2 cells", "assay": "Cell death of HepG2 cells inducibly expressing MLKL mutants", "format": "cell-based, human", "details": "inducible expression in HepG2 cells"}}, "note": "Residue numbers refer to the chain shown, from its start. In names and notes the source's numbering stands. Entries after “also recorded” stand apart in the source; their conditions may differ."}
{"molecule": "CO/C1=C\\C(C)=C\\[C@@H](C)[C@@H](O)[C@@H](C)C/C(C)=C/C=C/[C@H](OC)[C@@H]([C@@H](C)[C@@H](O)[C@H](C)[C@@]2(O)C[C@@H](O)[C@H](C)[C@@H](C(C)C)O2)OC1=O", "note": "[bafilomycin A1]", "values": [{"measurement": "cellular levels of the EGFR", "setting": "HepG2 cells [1]", "result": "withhold the decrease"}, {"measurement": "difference in EGFR between cells expressing MLKL and cells deficient of it", "setting": "HepG2 cells [1]", "result": "obliterate the difference"}, {"measurement": "difference in EGFR between cells expressing MLKL and cells deficient of it", "setting": "HepG2 cells [1]; listed as Baf A1", "result": "equal accumulation of EGFR"}]}
{"molecule": "CCN(CC)CCCC(C)Nc1ccnc2cc(Cl)ccc12", "note": "(stereo not shown) [chloroquine]", "values": [{"measurement": "cellular levels of the EGFR", "setting": "HepG2 cells [1]", "result": "withhold the decrease"}, {"measurement": "difference in EGFR between cells expressing MLKL and cells deficient of it", "setting": "HepG2 cells [1]", "result": "obliterate the difference"}, {"measurement": "difference in EGFR between cells expressing MLKL and cells deficient of it", "setting": "HepG2 cells [1]; listed as CQ", "result": "equal accumulation of EGFR"}]}
{"molecule": "C[C@H](CCC(=O)O)C[C@H](C)C[C@H](C)C(=O)/C=C(\\O)[C@H](C)C[C@H](C)C/C=C/[C@@H](C)[C@@H](O)[C@@H](C)[C@@H](O)C[C@@H]1CC[C@@](C)([C@H]2CC[C@@](C)([C@@H](C)O)O2)O1", "note": "[ionomycin]", "values": [{"measurement": "generation of exosomes", "setting": "HepG2 cells [2]; HepG2 cells", "result": "enhanced generation of exosomes"}, {"measurement": "generation of exosomes", "setting": "HepG2 cells [2]; HepG2 cells deficient of MLKL", "result": "no such enhancement"}, {"measurement": "generation of exosomes", "setting": "MEFs; MEFs", "result": "enhanced generation of exosomes"}, {"measurement": "generation of exosomes", "setting": "MEFs; MEFs deficient of MLKL", "result": "no such enhancement"}]}
{"molecule": "CN1C(=O)C(Cc2c[nH]c3ccccc23)NC1=S", "note": "(stereo not shown) [necrostatin-1]", "values": [{"measurement": "effect on enhancement of exosome generation by TBZ", "setting": "HT29 cells", "result": "block this enhancement; also recorded: reversal"}]}
{"molecule": "B1", "values": [{"measurement": "cell death", "setting": "[3]", "result": "triggers necrotic death of the cells"}, {"measurement": "generation of exosomes", "setting": "[4]", "result": "significantly lower"}]}
{"molecule": "B2", "values": [{"measurement": "death in HT29 cells on inducible expression", "setting": "[5]", "result": "triggers death"}, {"measurement": "generation of exosomes", "setting": "[4]", "result": "levels higher than in cells expressing the wild type protein"}, {"measurement": "intracellular degradation of EGF and EGFR following uptake", "setting": "[6]", "result": "facilitated"}, {"measurement": "death of HepG2 cells within the time of the test", "setting": "HepG2 cells [7]", "result": "no death"}]}
{"molecule": "B3", "values": [{"measurement": "induction of necroptosis/death by TBZ", "setting": "[5]", "result": "arrest death induction"}, {"measurement": "generation of exosomes", "setting": "[4]", "result": "failed to generate exosomes"}]}
{"molecule": "B4", "values": [{"measurement": "induction of necroptosis/death by TBZ", "setting": "[5]", "result": "compromised"}, {"measurement": "generation of exosomes", "setting": "[4]", "result": "compromised"}]}
{"molecule": "B5", "values": [{"measurement": "death in HT29 cells on inducible expression", "setting": "[5]", "result": "triggers death"}, {"measurement": "generation of exosomes", "setting": "[4]", "result": "levels higher than in cells expressing the wild type protein"}, {"measurement": "intracellular degradation of EGF and EGFR following uptake", "setting": "[6]", "result": "facilitated"}, {"measurement": "death of HepG2 cells within the time of the test", "setting": "HepG2 cells [7]", "result": "about 1%"}]}
